In data set [1] the target is T1, heme-regulated inhibitor (HRI) (Homo sapiens, UniProt Q9BQI3).
T1 construct: gene EIF2AK1; HRI-FL (full-length)
As to the kind of experiment: γ[…] ATP filter-paper kinase assay with eIF2α peptide; supported by DSF (~[…] °C shift) and DSC stabilization. The format is biochemical. (In general: Differential scanning fluorimetry follows unfolding on heating by fluorescence.)

Data set [2] deals with the molecule itself. As to the kind of experiment: AUC; sedimentation velocity; samples at an absorbance of 0.5 at 280 nm, 20 °C, 42,000 rpm, c(s) distribution model in SEDFIT; self-association (oligomeric state from fit MW).

The IC50 is the concentration that gives 50% inhibition. One may read the stoichiometry N as a count of units in the complex or per binding partner.

T1 sequence (Q9BQI3 whole entry): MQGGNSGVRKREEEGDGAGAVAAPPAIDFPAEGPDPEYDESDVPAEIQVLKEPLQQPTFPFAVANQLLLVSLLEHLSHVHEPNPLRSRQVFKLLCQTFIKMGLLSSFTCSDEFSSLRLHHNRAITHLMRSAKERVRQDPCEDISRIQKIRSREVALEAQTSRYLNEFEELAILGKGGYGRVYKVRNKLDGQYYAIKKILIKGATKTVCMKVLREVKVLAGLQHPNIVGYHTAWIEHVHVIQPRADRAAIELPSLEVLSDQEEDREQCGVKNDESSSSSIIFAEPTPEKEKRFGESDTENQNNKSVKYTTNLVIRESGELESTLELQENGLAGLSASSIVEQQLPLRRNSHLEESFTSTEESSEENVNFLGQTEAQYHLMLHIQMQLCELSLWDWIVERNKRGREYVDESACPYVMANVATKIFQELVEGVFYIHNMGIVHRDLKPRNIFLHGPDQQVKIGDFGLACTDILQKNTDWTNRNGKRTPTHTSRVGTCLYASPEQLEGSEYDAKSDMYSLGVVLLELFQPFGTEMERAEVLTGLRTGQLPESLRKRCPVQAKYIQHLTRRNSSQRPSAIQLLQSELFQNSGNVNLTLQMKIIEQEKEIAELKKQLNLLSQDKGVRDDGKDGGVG

For `O=c1c(O)c(-c2ccc(O)c(O)c2)oc2cc(O)cc(O)c12` [quercetin], the IC50 in data set [1] came to 1.52 µM.

B1: HRI-ΔN-ΔpCC (Δ1-143, Δ620-630), untreated (phosphorylated as purified) (domain or fragment, human, UniProt Q9BQI3 144-619, looked up)
chain: SRIQKIRSREVALEAQTSRYLNEFEELAILGKGGYGRVYKVRNKLDGQYYAIKKILIKGATKTVCMKVLREVKVLAGLQHPNIVGYHTAWIEHVHVIQPRADRAAIELPSLEVLSDQEEDREQCGVKNDESSSSSIIFAEPTPEKEKRFGESDTENQNNKSVKYTTNLVIRESGELESTLELQENGLAGLSASSIVEQQLPLRRNSHLEESFTSTEESSEENVNFLGQTEAQYHLMLHIQMQLCELSLWDWIVERNKRGREYVDESACPYVMANVATKIFQELVEGVFYIHNMGIVHRDLKPRNIFLHGPDQQVKIGDFGLACTDILQKNTDWTNRNGKRTPTHTSRVGTCLYASPEQLEGSEYDAKSDMYSLGVVLLELFQPFGTEMERAEVLTGLRTGQLPESLRKRCPVQAKYIQHLTRRNSSQRPSAIQLLQSELFQNSGNVNLTLQMKIIEQEKEIAELKKQLNLLSQDKG
modifications: autophosphorylated as purified from E. coli (sites not given)
notes: The limits 144-619 follow from the printed deletions Δ1-143 and Δ620-630; also called His-HRI-ΔN-ΔpCC; untreated HRI-ΔN-ΔpCC
With B1, in data set [2], the “stoichiometry N” value turned out to be 2.

B2: HRI-ΔN-ΔpCC (Δ1-143, Δ620-630), dephosphorylated with lambda phosphatase (domain or fragment, human, UniProt Q9BQI3 144-619, looked up)
chain: B1 chain
notes: Human HRI, UniProt Q9BQI3, residues 144-619 (Δ1-143, Δ620-630); phosphate groups removed with lambda phosphatase; The limits 144-619 follow from the printed deletions Δ1-143 and Δ620-630; also called dephosphorylated HRI-ΔN-ΔpCC; source: E. coli BL21-Rosetta(DE3), purified, incubated with lambda phosphatase, then Superdex 200
For the molecule B2, the “stoichiometry N” value in data set [2] amounted to 2.
